Measured values: the supplement of paper PMC5998384

Key:
[1] = test system: HeLa Kyoto; test: melting temperature (median over replicates), in situ; higher = more thermally stable
[2] = test system: HeLa Kyoto; test: solubility in G1/S (NP-40 vs SDS abundance) (log2 ratio); higher = more soluble; conditions: cell cycle stage: G1/S
[3] = test system: HeLa Kyoto; test: solubility change mitosis vs G1/S (difference of NP-40 vs SDS log2 ratios) (log2 ratio difference); higher = more soluble in mitosis
[4] = test system: HeLa Kyoto; test: thermal stability score vs G1/S (z-score of summed log2 fold changes over temperatures); higher = more thermally stable than in G1/S
[5] = cell cycle stage: early G1 (4.5 h after nocodazole release)
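Wherever melting temperature (median over replicates), in situ is given: HeLa Kyoto cells synchronized by double thymidine or nocodazole block, proteins quantified by TMT10plex mass spectrometry, three independent biological replicates.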
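Wherever solubility change mitosis vs G1/S (difference of NP-40 vs SDS log2 ratios) is given: synchronized HeLa Kyoto cells (double thymidine block for G1/S, nocodazole release for mitosis), protein amounts in NP-40 versus SDS lysates quantified by mass spectrometry, three biological replicates.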
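Wherever solubility in G1/S (NP-40 vs SDS abundance) is given: HeLa Kyoto cells arrested at G1/S by double thymidine block, proteins quantified by TMT10plex mass spectrometry in mild NP-40 versus SDS extracts, three biological replicates.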
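Wherever thermal stability score vs G1/S (z-score of summed log2 fold changes over temperatures) is given: synchronized HeLa Kyoto cells, proteins quantified by TMT10plex mass spectrometry, three biological replicates, mitosis taken 0.5 h after nocodazole release, G1/S directly after double thymidine block.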

Substance	melting temperature ([1]; cell cycle stage: G1/S) [°C]	melting temperature ([1]; cell cycle stage: mitosis) [°C]	solubility in G1/S (log2) [2]	solubility change mitosis (log2) [3]	thermal stability score [4, 5]	thermal stability score ([4]; cell cycle stage: mitosis)
MMPMFLTVYLSNNEQHFTEVPVTPETICRDVVDLCKEPGESDCHLAEVWCGSERPVADNERMFDVLQRFGSQRNEVRFFLRHERPPGRDIVSGPRSQDPSLKRNGVKVPGEYRRKENGVNSPRMDLTLAELQEMASRQQQQIEAQQQLLATKEQRLKFLKQQDQRQQQQVAEQEKLKRLKEIAENQEAKLKKVRALKGHVEQKRLSNGKLVEEIEQMNNLFQQKQRELVLAVSKVEELTRQLEMLKNGRIDSHHDNQSAVAELDRLYKELQLRNKLNQEQNAKLQQQRECLNKRNSEVAVMDKRVNELRDRLWKKKAALQQKENLPVSSDGNLPQQAASAPSRVAAVGPYIQSSTMPRMPSRPELLVKPALPDGSLVIQASEGPMKIQTLPNMRSGAASQTKGSKIHPVGPDWSPSNADLFPSQGSASVPQSTGNALDQVDDGEVPLREKEKKVRPFSMFDAVDQSNAPPSFGTLRKNQSSEDILRDAQVANKNVAKVPPPVPTKPKQINLPYFGQTNQPPSDIKPDGSSQQLSTVVPSMGTKPKPAGQQPRVLLSPSIPSVGQDQTLSPGSKQESPPAAAVRPFTPQPSKDTLLPPFRKPQTVAASSIYSMYTQQQAPGKNFQQAVQSALTKTHTRGPHFSSVYGKPVIAAAQNQQQHPENIYSNSQGKPGSPEPETEPVSSVQENHENERIPRPLSPTKLLPFLSNPYRNQSDADLEALRKKLSNAPRPLKKRSSITEPEGPNGPNIQKLLYQRTTIAAMETISVPSYPSKSASVTASSESPVEIQNPYLHVEPEKEVVSLVPESLSPEDVGNASTENSDMPAPSPGLDYEPEGVPDNSPNLQNNPEEPNPEAPHVLDVYLEEYPPYPPPPYPSGEPEGPGEDSVSMRPPEITGQVSLPPGKRTNLRKTGSERIAHGMRVKFNPLALLLDSSLEGEFDLVQRIIYEVDDPSLPNDEGITALHNAVCAGHTEIVKFLVQFGVNVNAADSDGWTPLHCAASCNNVQVCKFLVESGAAVFAMTYSDMQTAADKCEEMEEGYTQCSQFLYGVQEKMGIMNKGVIYALWDYEPQNDDELPMKEGDCMTIIHREDEDEIEWWWARLNDKEGYVPRNLLGLYPRIKPRQRSLA [TP53BP2]	48.9	48.5	0.0669	-0.063	0.713	1.28
MVMAAKKGPGPGGGVSGGKAEAEAASEVWCRRVRELGGCSQAGNRHCFECAQRGVTYVDITVGSFVCTTCSGLLRGLNPPHRVKSISMTTFTEPEVVFLQSRGNEVCRKIWLGLFDARTSLVPDSRDPQKVKEFLQEKYEKKRWYVPPDQVKGPTYTKGSASTPVQGSIPEGKPLRTLLGDPAPSLSVAASTSSQPVSQSHARTSQARSTQPPPHSSVKKASTDLLADIGGDPFAAPQMAPAFAAFPAFGGQTPSQGGFANFDAFSSGPSSSVFGSLPPAGQASFQAQPTPAGSSQGTPFGATPLAPASQPNSLADVGSFLGPGVPAAGVPSSLFGMAGQVPPLQSVTMGGGGGSSTGLAFGAFTNPFTAPAAQSPLPSTNPFQPNGLAPGPGFGMSSAGPGFPQAVPPTGAFASSFPAPLFPPQTPLVQQQNGSSFGDLGSAKLGQRPLSQPAGISTNPFMTGPSSSPFASKPPTTNPFL [AGFG2]	46.6	47.9	0.247	-0.0538	0.518	0.826
MSLSRSEEMHRLTENVYKTIMEQFNPSLRNFIAMGKNYEKALAGVTYAAKGYFDALVKMGELASESQGSKELGDVLFQMAEVHRQIQNQLEEMLKSFHNELLTQLEQKVELDSRYLSAALKKYQTEQRSKGDALDKCQAELKKLRKKSQGSKNPQKYSDKELQYIDAISNKQGELENYVSDGYKTALTEERRRFCFLVEKQCAVAKNSAAYHSKGKELLAQKLPLWQQACADPSKIPERAVQLMQQVASNGATLPSALSASKSNLVISDPIPGAKPLPVPPELAPFVGRMSAQESTPIMNGVTGPDGEDYSPWADRKAAQPKSLSPPQSQSKLSDSYSNTLPVRKSVTPKNSYATTENKTLPRSSSMAAGLERNGRMRVKAIFSHAAGDNSTLLSFKEGDLITLLVPEARDGWHYGESEKTKMRGWFPFSYTRVLDSDGSDRLHMSLQQGKSSSTGNLLDKDDLAIPPPDYGAASRAFPAQTASGFKQRPYSVAVPAFSQGLDDYGARSMSRNPFAHVQLKPTVTNDRCDLSAQGPEGREHGDGSARTLAGR [BAIAP2]	50.6	51.2	0.466	0.0657	0.524	0.515
MQWNVPRTVSRLARRTCLEPHNAGLFGHCQNVKGPLLLYNAESKVVLVQGPQKQWLHLSAAQCVAKERRPLDAHPPQPGVLRHKQGKQHVSFRRVFSSSATAQGTPEKKEEPDPLQDKSISLYQRFKKTFRQYGKVLIPVHLITSGVWFGTFYYAALKGVNVVPFLELIGLPDSVVSILKNSQSGNALTAYALFKIATPARYTVTLGGTSVTVKYLRSHGYMSTPPPVKEYLQDRMEETKELITEKMEETKDRLTEKLQETKEKVSFKKKVE [FAM210A]	55.7	54.9	0.234	-0.102	-3.65	-2.22
MEVAANCSLRVKRPLLDPRFEGYKLSLEPLPCYQLELDAAVAEVKLRDDQYTLEHMHAFGMYNYLHCDSWYQDSVYYIDTLGRIMNLTVMLDTALGKPREVFRLPTDLTACDNRLCASIHFSSSTWVTLSDGTGRLYVIGTGERGNSASEKWEIMFNEELGDPFIIIHSISLLNAEEHSIATLLLRIEKEELDMKGSGFYVSLEWVTISKKNQDNKKYEIIKRDILRGKSVPHYAAIEPDGNGLMIVSYKSLTFVQAGQDLEENMDEDISEKIKEPLYYWQQTEDDLTVTIRLPEDSTKEDIQIQFLPDHINIVLKDHQFLEGKLYSSIDHESSTWIIKESNSLEISLIKKNEGLTWPELVIGDKQGELIRDSAQCAAIAERLMHLTSEELNPNPDKEKPPCNAQELEECDIFFEESSSLCRFDGNTLKTTHVVNLGSNQYLFSVIVDPKEMPCFCLRHDVDALLWQPHSSKQDDMWEHIATFNALGYVQASKRDKKFFACAPNYSYAALCECLRRVFIYRQPAPMSTVLYNRKEGRQVGQVAKQQVASLETNDPILGFQATNERLFVLTTKNLFLIKVNTEN [NUDCD1]	51.5	52.4	-0.0356	-0.234	0.569	0.543
MPSTNRAGSLKDPEIAELFFKEDPEKLFTDLREIGHGSFGAVYFARDVRTNEVVAIKKMSYSGKQSTEKWQDIIKEVKFLQRIKHPNSIEYKGCYLREHTAWLVMEYCLGSASDLLEVHKKPLQEVEIAAITHGALQGLAYLHSHTMIHRDIKAGNILLTEPGQVKLADFGSASMASPANSFVGTPYWMAPEVILAMDEGQYDGKVDVWSLGITCIELAERKPPLFNMNAMSALYHIAQNESPTLQSNEWSDYFRNFVDSCLQKIPQDRPTSEELLKHIFVLRERPETVLIDLIQRTKDAVRELDNLQYRKMKKLLFQEAHNGPAVEAQEEEEEQDHGVGRTGTVNSVGSNQSIPSMSISASSQSSSVNSLPDVSDDKSELDMMEGDHTVMSNSSVIHLKPEEENYREEGDPRTRASDPQSPPQVSRHKSHYRNREHFATIRTASLVTRQMQEHEQDSELREQMSGYKRMRRQHQKQLMTLENKLKAEMDEHRLRLDKDLETQRNNFAAEMEKLIKKHQAAMEKEAKVMSNEEKKFQQHIQAQQKKELNSFLESQKREYKLRKEQLKEELNENQSTPKKEKQEWLSKQKENIQHFQAEEEANLLRRQRQYLELECRRFKRRMLLGRHNLEQDLVREELNKRQTQKDLEHAMLLRQHESMQELEFRHLNTIQKMRCELIRLQHQTELTNQLEYNKRRERELRRKHVMEVRQQPKSLKSKELQIKKQFQDTCKIQTRQYKALRNHLLETTPKSEHKAVLKRLKEEQTRKLAILAEQYDHSINEMLSTQALRLDEAQEAECQVLKMQLQQELELLNAYQSKIKMQAEAQHDRELRELEQRVSLRRALLEQKIEEEMLALQNERTERIRSLLERQAREIEAFDSESMRLGFSNMVLSNLSPEAFSHSYPGASGWSHNPTGGPGPHWGHPMGGPPQAWGHPMQGGPQPWGHPSGPMQGVPRGSSMGVRNSPQALRRTASGGRTEQGMSRSTSVTSQISNGSHMSYT [TAOK1]	51.7	50.8	0.0325	-0.0943	0.109	-0.35
TRPM7	51.6	51.4	-0.312	-0.0119	0.936	0.742
MRNLKLFRTLEFRDIQGPGNPQCFSLRTEQGTVLIGSEHGLIEVDPVSREVKNEVSLVAEGFLPEDGSGRIVGVQDLLDQESVCVATASGDVILCSLSTQQLECVGSVASGISVMSWSPDQELVLLATGQQTLIMMTKDFEPILEQQIHQDDFGESKFITVGWGRKETQFHGSEGRQAAFQMQMHESALPWDDHRPQVTWRGDGQFFAVSVVCPETGARKVRVWNREFALQSTSEPVAGLGPALAWKPSGSLIASTQDKPNQQDIVFFEKNGLLHGHFTLPFLKDEVKVNDLLWNADSSVLAVWLEDLQREESSIPKTCVQLWTVGNYHWYLKQSLSFSTCGKSKIVSLMWDPVTPYRLHVLCQGWHYLAYDWHWTTDRSVGDNSSDLSNVAVIDGNRVLVTVFRQTVVPPPMCTYQLLFPHPVNQVTFLAHPQKSNDLAVLDASNQISVYKCGDCPSADPTVKLGAVGGSGFKVCLRTPHLEKRYKIQFENNEDQDVNPLKLGLLTWIEEDVFLAVSHSEFSPRSVIHHLTAASSEMDEEHGQLNVSSSAAVDGVIISLCCNSKTKSVVLQLADGQIFKYLWESPSLAIKPWKNSGGFPVRFPYPCTQTELAMIGEEECVLGLTDRCRFFINDIEVASNITSFAVYDEFLLLTTHSHTCQCFCLRDASFKTLQAGLSSNHVSHGEVLRKVERGSRIVTVVPQDTKLVLQMPRGNLEVVHHRALVLAQIRKWLDKLMFKEAFECMRKLRINLNLIYDHNPKVFLGNVETFIKQIDSVNHINLFFTELKEEDVTKTMYPAPVTSSVYLSRDPDGNKIDLVCDAMRAVMESINPHKYCLSILTSHVKKTTPELEIVLQKVHELQGNAPSDPDAVSAEEALKYLLHLVDVNELYDHSLGTYDFDLVLMVAEKSQKDPKEYLPFLNTLKKMETNYQRFTIDKYLKRYEKAIGHLSKCGPEYFPECLNLIKDKNLYNEALKLYSPSSQQYQDISIAYGEHLMQEHMYEPAGLMFARCGAHEKALSAFLTCGNWKQALCVAAQLNFTKDQLVGLGRTLAGKLVEQRKHIDAAMVLEECAQDYEEAVLLLLEGAAWEEALRLVYKYNRLDIIETNVKPSILEAQKNYMAFLDSQTATFSRHKKRLLVVRELKEQAQQAGLDDEVPHGQESDLFSETSSVVSGSEMSGKYSHSNSRISARSSKNRRKAERKKHSLKEGSPLEDLALLEALSEVVQNTENLKDEVYHILKVLFLFEFDEQGRELQKAFEDTLQLMERSLPEIWTLTYQQNSATPVLGPNSTANSIMASYQQQKTSVPVLDAELFIPPKINRRTQWKLSLLD [IKBKAP]	50.2	50	-0.206	-0.15	0.962	-0.0976
